# According to patent US5472938A, “Pharmaceutical depot compositions containing hirudin” (Ciba-Geigy Corporation, priority 1993, dated 1995):
# Assay: Storage of hirudin in water, chromatographic analysis (Mono Q / ProPac)
# Format: physicochemical
# Settings: FIG. 2
# Procedure: MONO Q METHOD: The stability of hirudin can be analysed by FPLC ([…] protein liquid chromatography) using a Mono-Q column (10 μm particle size, 5.0×50 mm, purchased from Pharmacia). The method was developed by Ciba-Geigy, Basel. Solvent A is 50 mM HCOONH4 in H2 O pH 4.5, and solvent B is 50 mM HCOONH4 in H2 O , pH 3.5. The elution is performed at room temperature (22° C.) using a flow rate of 1.4 ml/min. The binary elution for the first 5 min is at constant flow of 20% B, followed by a linear gradient from 20% B to 75% B over 10 minutes, and 2 minutes at 100% B after which the column is equilibrated for 2 min at the starting conditions of 20% B.
# PROPAC METHOD: A recently published method for hirudin analysis can also be used [Tuong, A., Maftouh, M., Ponthus, C., Whitechurch, O., Roitsch, C., and Picard, C. (1992) "Characterisation of the Deamidated Forms of Recombinant Hirudin" Biochemistry 31, 8291-8299]. In this method a ProPac PAl anion-exchange column (250×4 mm i.d.) from Dionex is used. Solvent A is 20 mM Tris-HCl, pH 7.0 and solvent B is 0.5M NaCL in A. Isocrastic elution for 5 min at 28% is followed by a linear gradient from 28%B to 54%B over 60 min at a flow rate of 1.3 ml/mim.
# The two peaks which elute in the front of the main peak (FIG. 1) are referred to as Q4 and Q5 peaks, respectively. […] The exact nature of the products which produce those extra peaks is not known.
substance,measurement,value
hirudin,change of chromatogram on storage in water,increase of the Q4 and Q5 peaks with time
